In paper PMC7527728, “CPSF6-Dependent Targeting of Speckle-Associated Domains Distinguishes Primate from Nonprimate Lentiviral Integration” (mBio, 2020):
Where two headings read alike, the source gives them in different places.

Assays:
EIAV = assay: CPSF6-358 restriction assay, EIAV; format: cell-based; conditions: HEK293T expressing CPSF6-358 vs vector control, GFP virus, MOI 0.4 to 0.5, 48 h (Fig. 5B)
Protocol: (§1) Vector control HEK293T cells were infected with GFP viruses at approximate MOIs of 0.4 to 0.5 alongside cells expressing CPSF6-358 (Fig. 5A).
(§2) HEK293T cells were cultured at 37°C in Dulbecco’s modified Eagle’s medium containing 10% (vol/vol) fetal bovine serum (FBS), 100 IU/ml penicillin, and 100 μg/ml streptomycin (DMEM) in humidified incubators in the presence of 5% CO2.
(§3) Infections were conducted in duplicate in 24-well plates (10^5 cells/well). After 6 to 8 h, medium was replaced with fresh DMEM or RPMI, and cells were harvested at 48 h from the start of the experiment. GFP reporter viral MOIs were determined as percentage of GFP-positive cells using a FACSCanto flow cytometer (BD Biosciences).

SIVmac [1] = assay: CPSF6-358 restriction assay, SIVmac; format: cell-based; conditions: HEK293T expressing CPSF6-358 vs vector, Luc virus, range of virus inocula (Fig. 5C)
Protocol: as §1, §2
(§4) Single-cycle GFP and Luc reporter viruses were produced by cotransfection of HEK293T cells in 10-cm dishes with 15 μg total of various ratios of virus production plasmids using PolyJet DNA transfection reagent (SignaGen Laboratories). […] Concentrations of retroviral particles in mU/ml were determined using a TaqMan-based product-enhanced reverse transcriptase (Taq-PERT) real-time PCR assay ([80]).
(§5) Infections were conducted in duplicate in 24-well plates (10^5 cells/well). […] GFP reporter viral MOIs were determined as percentage of GFP-positive cells using a FACSCanto flow cytometer (BD Biosciences). […] Cell lysates were centrifuged at 17,500 × g for 8 min, and supernatants were analyzed in triplicate for luciferase activity. Relative light units (RLU), determined by luminometer (Berthold Technologies), were normalized to total protein concentration as measured by Pierce BCA protein assay kit (Thermo Fisher Scientific).

HIV-1 [2] = conditions: cited from earlier work
FIV = assay: CPSF6-358 restriction assay, FIV; format: cell-based; conditions: HEK293T expressing CPSF6-358 vs vector control, GFP virus, MOI 0.4 to 0.5, 48 h (Fig. 5B)
Protocol: as §1, §2, §4, §5

HIV-2 = test system: HIV-2; design: method as in PMID 20227665; conditions: cited from earlier work
BIV = assay: CPSF6-358 restriction assay, BIV; format: cell-based; conditions: HEK293T expressing CPSF6-358 vs vector control, GFP virus, MOI 0.4 to 0.5, 48 h (Fig. 5B)
Protocol: as §1, §2, §4, §5

HIV-1 [3] = conditions: HEK293T expressing CPSF6-358 vs vector, Luc virus, range of virus inocula (Fig. 5C)
Protocol: as §1, §2, §4, §5

MLV = assay: CPSF6-358 restriction assay, MLV; format: cell-based; conditions: HEK293T expressing CPSF6-358 vs vector control, GFP virus, MOI 0.4 to 0.5, 48 h (Fig. 5B)
Protocol: as §1, §2, §4, §5

SIVmne = test system: SIVmne; design: method as in PMID 20227665; conditions: cited from earlier work
primate lentiviruses = assay: CPSF6-358 restriction assay, primate lentiviruses; format: cell-based; conditions: HEK293T expressing CPSF6-358 vs vector control, GFP viruses, MOI 0.4 to 0.5, 48 h (Fig. 5B)
Protocol: as §1, §2, §3

SIVmac [4] = test system: SIVmac; design: method as in 2 sources, ref 33 = [33]; PMID 20227665; doi:10.1016/j.chom.2010.02.007; 33. Lee K , Ambrose Z , Martin TD , Oztop I , Mulky A , Julias JG , Vandegraaff N , Baumann JG , Wang R , Yuen W , Takemura T , Shelton K , Taniuchi I , Li Y , Sodroski J , Littman D , Coffin J , Hugh ||| ref 35 = [35]; PMID 24130490; doi:10.1371/journal.ppat.1003693; 35. Matreyek KA , Yücel SS , Li X , Engelman A 2013 Nucleoporin NUP153 phenylalanine-glycine motifs engage a common binding pocket within the HIV-1 capsid protein to mediate lentiviral infectivity . P; conditions: cited from earlier work

B1: CPSF6-358 (protein, UniProt Q16630 1-358, looked up, fragment)
chain: MADGVDHIDIYADVGEEFNQEAEYGGHDQIDLYDDVISPSANNGDAPEDRDYMDTLPPTVGDDVGKGAAPNVVYTYTGKRIALYIGNLTWWTTDEDLTEAVHSLGVNDILEIKFFENRANGQSKGFALVGVGSEASSKKLMDLLPKRELHGQNPVVTPCNKQFLSQFEMQSRKTTQSGQMSGEGKAGPPGGSSRAAFPQGGRGRGRFPGAVPGGDRFPGPAGPGGPPPPFPAGQTPPRPPLGPPGPPGPPGPPPPGQVLPPPLAGPPNRGDRPPPPVLFPGQPFGQPPLGPLPPGPPPPVPGYGPPPGPPPPQQGPPPPPGPFPPRPPGPLGPPLTLAPPPHLPGPPPGAPPPAPHVN
- restriction of infection, in words (EIAV): failed to appreciably restrict EIAV infection
- restriction of infection, in words (SIVmac [1]): restriction of HIV-1 and SIVmac-Luc viruses was observed across a range of virus inocula
- restriction of infection, in words (HIV-1 [2]): restricted infection
- restriction of infection, in words (FIV): did not significantly restrict FIV infection
- restriction of infection, in words (HIV-2): restricted infection
- restriction of infection, in words (BIV): infection by BIV was similarly unaffected
- restriction of infection, in words (HIV-1 [3]): restriction of HIV-1 and SIVmac-Luc viruses was observed across a range of virus inocula
- restriction of infection, in words (MLV): MLV-GFP similarly infected control and CPSF6-358-expressing cells
- restriction of infection, in words (SIVmne): restricted infection
- restriction of infection, in words (primate lentiviruses): potently restricted infection by primate lentiviruses
- restriction of infection, in words (SIVmac [4]): restricted infection
